Experimental data: US20200299408A1 (Genentech, published 2020)
Numbering of substitutions follows the chain as printed.

Columns and labels:
[1] = molecular target: T1, single chain human CD3ε-26mer-CD3γ (CD3εγ) (human); assay: Biacore full (multi-) cycle kinetics: antigen on chip, Fab injected; antigen not named on the sheet, taken as human CD3εγ
T1 construct: also called human CD3εγ
T1 chain: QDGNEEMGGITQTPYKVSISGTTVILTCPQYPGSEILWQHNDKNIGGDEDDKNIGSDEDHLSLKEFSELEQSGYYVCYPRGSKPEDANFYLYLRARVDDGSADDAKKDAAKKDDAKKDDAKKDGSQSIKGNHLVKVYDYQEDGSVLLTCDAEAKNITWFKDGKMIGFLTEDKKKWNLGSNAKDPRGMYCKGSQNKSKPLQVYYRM
From the text: (§1) In addition, position 95 in HVR-H3 was also mutated to serine, threonine, or glutamate. Variants with these single point mutations were expressed as Fabs in HEK293 cells and initially screened with a single cycle kinetics method on a Biacore T100. Selected variants were also scaled up and purified for a conventional multi-cycle kinetics method. For single cycle kinetics, Biacore Series S CM5 sensor chips were immobilized with anti-human Fab antibodies (Human Fab capture kit, GE Healthcare). […] For conventional multi-cycle kinetics, human CD3εγ, cyno CD3εγ, or a 27-mer peptide were immobilized on Biacore Series S CM5 sensor chip using the amine coupling kit from Biacore. Serial 3-fold dilutions of each Fab variant were injected at a flow rate of 30 μl/min. Each sample was analyzed with a protocol of 3-minute association and 3-minute dissociation. In both methods, the Biacore chips were regenerated using 10 mM Glycine (pH 1.7). Binding response was corrected by blank subtraction and a 1:1Languir model of simultaneous fitting of kₒₙ and koff was used for kinetics analysis.

[2] = molecular target: T1, single chain human CD3ε-26mer-CD3γ …; assay: Biacore full (multi-) cycle kinetics; reference of the ratio column
From the text: as §1

[3] = molecular target: T1, single chain human CD3ε-26mer-CD3γ …; assay: Biacore, human CD3εγ on chip, Fab in flow through
Experimental: Binding affinities for the each of the CD3/CD20 TDBs were tested by Biacore or FACS analysis, as described above for the anti-CD3 antibodies. Briefly, for Biacore binding assays, human CD3εγ was immobilized on Biacore Series S CM5 sensor chip using the amine coupling kit from Biacore and CD3/CD20 TDBs or Fab variants thereof were in the flow through. For FACS binding assays, either Bjab cells (for B cell antigens) or Jurkat cells (for CD3 antigen) were incubated with various concentrations of TDB antibodies at 4° C. for 30 minutes, then cells were washed and incubated with 2nd antibody (anti-huIgG-PE; BD Bioscience) for another 15 minutes, before cells were washed again and ready for FACS analysis.

[4] = molecular target: T1, single chain human CD3ε-26mer-CD3γ …; assay: SPR (Biacore 4000): CD3εγ (row WT) captured from the periplasmic fraction on UCHT1v9; analyte a bispecific antibody with one 38E4v1 arm and one irrelevant arm, 0.39-100 nM
Experimental: (§2) The secreted CD3εγ variants were captured from the crude periplasmic fraction using anti-CD3 antibody UCHT1v9. UCHT1v9 was immobilized on a CM5 serios S chip through amine coupling using the anti-human IgG (Fc) antibody capture kit (BR-1008-39) from GE Healthcare. SPR measurements were performed on the Biacore 4000 instrument, utilizing kinetic evaluation software. In order to measure monovalent binding affinities, anti-CD3 bispecific antibodies were used in which one arm was the anti-CD3 to be tested and the arm recognized an irrelevant antigen. The bispecific anti-CD3 antibodies were passed over the captured supernatant in a concentration series of two-fold dilutions from 0.39 to 100 nM. The resulting kinetics (FIG. 13D) were measured and calculated using Biacore 4000 BIAevaluation software (product code 28-9664-57).

[5] = molecular target: T1, single chain human CD3ε-26mer-CD3γ …; assay: Biacore, monovalent KD of the CD3 arm; CD3 antigen not named on the sheet (reactivity hu, cyno)
[6] = molecular target: T1, single chain human CD3ε-26mer-CD3γ …; assay: Biacore single cycle kinetics: Fab captured by anti-human Fab, human CD3εγ injected (3-250 nM)
From the text: as §1

[7] = molecular target: T2, Q1A; assay: SPR (Biacore 4000): CD3εγ variant captured from the periplasmic fraction on UCHT1v9; analyte a bispecific antibody with one 38E4v1 arm and one irrelevant arm, 0.39-100 nM
T2 construct: Residue number counts from the N-terminus of CD3ε; also called CD3εγ Q1A; CD3 mutant Q1A
T2 single chain CD3ε-26mer linker-CD3γ: T1 chain with Q1A
Experimental: as §2

[8] = molecular target: T3, E6A; assay: as above
T3 construct: Residue number counts from the N-terminus of CD3ε; also called CD3εγ E6A; CD3 mutant E6A
T3 single chain CD3ε-26mer linker-CD3γ: T1 chain with E6A
Experimental: as §2

[9] = molecular target: T1, single chain human CD3ε-26mer-CD3γ …; assay: monovalent binding affinity, method not stated on the sheet; column huCD3εγ
[10] = molecular target: T1, single chain human CD3ε-26mer-CD3γ …; assay: Biacore single cycle kinetics; reference of the ratio column
From the text: as §1

Kd [1]: 0.8 nM
koff [1]: 0.00433 s⁻¹
kon [1]: 5.44e+06 M⁻¹ s⁻¹
ratio (fold) [2]: 1 fold
Kd [3]: 0.8 nM
koff [3]: 0.00507 s⁻¹
kon [3]: 6.06e+06 M⁻¹ s⁻¹
Kd [4]: 3 nM
Kd [5]: 1.3 nM
Kd [6]: 3.4 nM
koff [6]: 0.00108 s⁻¹
kon [6]: 320000 M⁻¹ s⁻¹
Kd [7]: 1000 nM
Kd [8]: 65 nM
Kd [9]: 0.5 nM
ratio (fold) [10]: 1 fold
B1: hu38E4.v1 Fab (Fab, V domains shown)
VH: EVQLVQSGAEVKKPGASVKVSCKASGFTFTSYYIHWVRQAPGQGLEWIGWIYPENDNTKYNEKFKDRVTITADTSTSTAYLELSSLRSEDTAVYYCARDGYSRYYFDYWGQGTLVTVSS
VL: DIVMTQSPDSLAVSLGERATINCKSSQSLLNSRTRKNYLAWYQQKPGQSPKLLIYWTSTRKSGVPDRFSGSGSGTDFTLTISSLQAEDVAVYYCKQSFILRTFGQGTKVEIK
notes: Humanized anti-CD3 Fab; Point mutants of it were expressed as Fabs in HEK293 cells
